For four sequences, protein production results are on record in a protein production outcome set (Wang et al. 2014).

The series in a line: label from the status in PepcDB records.
In the case of “MMRHSSLRLIIGGLILLLFVLNVFSKEQGSHSHKRSHSAKRFSRDSNSARERRPNIILILTDDQDVELGSLNFMPRTLRLLRDGGAEFRHAYTTTPMCCPARSSLLTGMYVHNHMVFTNNDNCSSPQWQATHETRSYATYLSNAGYRTGYFGKYLNKYNGSYIPPGWREWGGLIMNSKYYNYSINLNGQKIKHGFDYAKDYYPDLIANDSIAFLRSSKQQNQRKPVLLTMSFPAPHGPEDSAPQYSHLFFNVTTHHTPSYDHAPNPDKQWILRVTEPMQPVHKRFTNLLMTKRLQTLQSVDVAVERVYNELKELGELDNTYIVYTSDHGYHLGQFGLIKGKSFPFEFDVRVPFLIRGPGIQASKVVNEIVLNVDLAPTFLDMGGVPTPQHMDGRSILPLLLSRNRAVRDNWPDSFLIESSGRRETAEQIAESRARLQIERRNMKLANSSLLEDFLEGAGESTTIVSSSSTAATLMSSTAQQPEDGEEEVETDNEEDDVDGDGAMDSSAAALEEDDLDDAAFEEGDEELDQEFQQNNDLPLAPYITKMMRLNSECSDPALLKNCLPGQKWKCVNEEGRWRKHKCKFHLQLEHQLAAMPRKQYQRNCACFTPDGVVYTKIRAPSAGLHRVNKRTHNGPGRRRNKREVFHTELPDEMEELLDLHQVVDQLVDHTHRSKRDLPASSNETIAQVIQQIQSTLEILELKFNEHELHASNSSGNSYERGEKYTKSGGHRCFVDATTAKVNCSNVIYDDEKTWRTSRTQIDMLIKLLKDKIGKLKEMKKQLRESNKQALAAGRRNDNRRRNDQSVLDSGAGPEFNMSYFTEISSTPRSNVVGQTEVFQGYGSASAFDSLEQTQSHRFTPRAECYCEPDVGENHADSKEMAREARRKLKEERQRKKERKRIKKARLEKECLSEKMNCFSHDNQHWRTAPLWNDSPFCFCMNANNNTYSCLRTINGTHNFLYCEFTTGLITFYNLTIDRFETINRAAGLTPGERSHMHDALDQLKSCRGRSCSIRRHQNHLEGGSSAPLLPINQVHRNNKRKHSPLAGAVGNYAFVGPRLDMEALPPIKRRKLSKYNRLTGSQQSHMKRRPWKQTPLQQSPRFLRTHSVTPAQA”, the protein production result was “failed”.

As to “MMRKHFLSRSSLRAIVLCVSLGTLSAQAVSVPNAIAQSSLPASPLDSFYSSIPSGENTVAGTVLSEQVIPTGLLDATIKVKRIAYSSTHPSGRMVPTIATILTPTAPWTGSGPRPAALLAPGTQGAGDQCAPSKLITVGAEYELFPAIMLLRRGWTVAITDYQGLGTIGAHTYMNRKAQGAALLDLGRAVVNVKYPEVRKDAPLILWGYSQGGGASAAAAEMHASYAPDVNIRGGFAGGVPAELLATARSLEGSPLLGALGYAISGMYETHPELRLEVDDLLNDRGKQWIIDSGTHCLLDSFRTMPIPDSRVMTRSGQRLTDLLGSKVFHSYFEEQRLGKVAPDVPMFVSQGANDDIIPAQQARDMVSNWRDLGADVTYFEDPAPLLVRMEGHVRPLVTSFDPALQWAEKLLGSEVINPPSAS”, the protein production result was “failed”.

For “MMRRQRDEQQSRVFYDLSSLVLNLLRSPPMPISLPDHFPDPPARIRPPFSSHRFSSSSPSLAHISPSGFASLLLGISVALMLCGSVTFFIGFLLMPWVLALILVFYVAGIVSAISMVGRSILCYVLTPPSPSGKEISEWKLL”, the protein production entry is recorded as “failed”.

As for “MMRRVSLGSRLALLFAACTATVSLGAGLLFSRASEQHFVELDQQLLDSRLSLFRTQLAGVSTADELQARLPALRDELSHQADLALRISASNGATWFESRSGLPHAAQATGLATLHAPGIDYRSLSVPLTQGAMQSPRLTLYLDITHHQHFLQGMQRLIWLTVGLSALITALLGAWAARSGLRPLRQMGQVAASVSARSLTTRLPVAQMPEELAELASSMNAMLQRLDDAFQRLSAFSADIAHELRTPLSNLLTHTQVTLTRPRSLEEYREALHGNLEELQWMAQMINDMLFLAKADHGLLVPGDAPLALHDEVDALLEYYAPLAEDSDVQMLREGEAVLHGDQHMLRRALSNLLDNAMRFTPAGGQIKVTLGPGPTINVANTGLAIDPAALPRLFDRFYRVDPARREGSSEHAGLGLAITRSIVQAHGGCIRAECEGGWTRFVIEFTQDR”, the protein production entry was “failed”.
